Source: PMC9057599

Target: histone H4 N-terminus, 1-30 (UniProt P62805)
Test: biotin-peptide pulldown, blot
Conditions: reference: wild type ZMYND8; sites S486,S490

In the case of “ZMYND8 (from UniProt Q9ULU4) 2SA (S486A/S490A)”, the “binding against the reference” value is reported as “stronger”.
